Measurements from paper PMC5173032.

Biological target: human coagulation factor XII (purchased, not His-tagged) (human)

B1: 1M-265Rdel-hPEPD (domain or fragment)
chain: TIQNGDMCLFDMGGEYYCFASDITCSFPANGKFTADQKAVYEAVLRSSRAVMGAMKPGVWWPDMHRLADRIHLEELAHMGILSGSVDAMVQAHLGAVFMPHGLGHFLGIDVHDVGGYPEGVERIDEPGLRSLRTARHLQPGMVLTVEPGIYFIDHLLDEALADPARASFLNREVLQRFRGFGGVRIEEDVVVTDSGIELLTCVPRTVEEIEACMAGCDKAFTPFSGPK
FXII activation relative to hPEPD, chromogenic assay (mutant 40 and 400 nM, FXII 0.97 nM, ZnCl2-containing PBS, RT): 50%
